In US20240425583A1, “METHODS AND COMPOSITIONS RELATED TO MCL-1 AND BIM HETERODIMER ANTIBODIES” (priority 2021, published 2024):

Experiments:
[1] = target: T1, MCL-1/BIM heterodimer (Homo sapiens, UniProt Q07820); experiment: ELISA: Mcl-1-GST on glutathione-coated plates with or without Bim-BH3 peptide, detected with HSMCB antibody; format: binding; conditions: Mcl-1-GST with or without Bim-BH3 peptide, FIG. 1
T1 construct: mutated to delete their transmembrane domains; made in house; host or cells: E. coli BL21 (D3)
Protocol: Genes encoding human Mcl-1 were cloned and mutated to delete their transmembrane domains. The mutated genes were then linked to a nucleotide sequence encoding Glutathione-S-transferase (GST) and cloned into pGEX 4T-1 to obtain DNA constructs for expressing Mcl-1(Δ)-GST fusion proteins. DNA constructs for expressing full length human Bim, all fused with GST, were prepared by recombinant technology.
The plates were then washed three times with PBS containing 0.05% TWEEN 20™ (PBST) and blocked with 50 μl PBS containing 2.0% bovine serum albumin (BSA) at room temperature for 1 hour. The plates were then washed again three times with PBST. Afterwards, 100 μl of a hybridoma supernatant was added to designated wells. The plates were incubated at room temperature for 1 hour on a shaker apparatus and then washed three times with wash buffer. Next, 50 μl of HRP-conjugated goat anti-mouse IgG Fc (Cappel Laboratories), diluted 1:1000 in assay buffer (0.5% bovine serum albumin, 0.05% % TWEEN 20™, 0.01% Thimersol in PBS), was added to each well. […] 50 μl of […] was added to each well to stop the reaction and absorbance at 450 nm in each well is read in a microliter plate reader. […]

[2] = test system: MCF-7 breast cancer cells; experiment: IHC staining of FFPE MCF-7 cells, wild-type vs BIM siRNA; format: cell-based, human; conditions: BIM-siRNA transfected MCF-7 cells vs wild-type, FIG. 3
Source text: (§1) The MCL-1/BIM heterodimer antibody (HSMCB) requires BIM to bind in situ. BIM siRNA was used on both MCF-7 and HCC70 cells (far left, and right middle columns, respectively), and the cells were then formalin-fixed and paraffin embedded into a tissue microarray (TMA) block, sectioned and added to glass slides, and stained with HSMCB. IHC images of the wild-type (WT) staining for both MCF-7 and HCC70 cells are shown in the middle-left, and far right columns, respectively. […] The images across the top panel in FIG. 3 are of an HSMCB antibody having CDRs selected from SEQ ID NO: 9, SEQ ID NO: 10, SEQ ID NO: 11, SEQ ID NO: 12, SEQ ID NO: 13, SEQ ID NO: 14, and having a variable heavy chain selected from SEQ ID NO: 15, and a variable light chain selected from SEQ ID NO: 16; and the images across the bottom panel in FIG. 3 are of an HSMCB antibody having CDRs selected from SEQ ID NO: 1, SEQ ID NO: 2, SEQ ID NO: 3, SEQ ID NO: 4, SEQ ID NO: 5, SEQ ID NO: 6, and having a variable heavy chain selected from SEQ ID NO: 7, and a variable light chain selected from SEQ ID NO: 8.
(§2) The experiments of this example show a set of IHC images relating to the application of the Mcl-1/Bim heterodimer antibody (HSMCB) to formalin-fixed paraffin-embedded (FFPE) specimens from MCF-7 breast cancer cells, and HCC70 triple negative breast cancer cells. […]

[3] = test system: HCC70 triple negative breast cancer cells; experiment: IHC staining of FFPE HCC70 cells, wild-type vs BIM siRNA; format: cell-based, human; conditions: for HSMCB IHC signal intensity: BIM-siRNA transfected HCC70 cells vs wild-type, FIG. 3
Source text: as §1
In the far left panel. IHC images of the HSMCB antibody are shown for both WT HCC70 cells, and Bim-siRNA transfected HCC70 cells. In the middle panel. IHC images of the HSBXB antibody are shown for both WT HCC70 cells, and Bim-siRNA transfected HCC70 cells. In the far right panel. IHC images are shown of HCC70 cells without application of HSMCB or HSBXB. […] The images in the left column of FIG. 4 are of an HSMCB antibody having CDRs selected from SEQ ID NO: 9, SEQ ID NO: 10, SEQ ID NO: 11, SEQ ID NO: 12, SEQ ID NO: 13, SEQ ID NO: 14, and having a variable heavy chain selected from SEQ ID NO: 15, and a variable light chain selected from SEQ ID NO: 16.
as §2

T1 sequence (Q07820 1-327 limits assumed): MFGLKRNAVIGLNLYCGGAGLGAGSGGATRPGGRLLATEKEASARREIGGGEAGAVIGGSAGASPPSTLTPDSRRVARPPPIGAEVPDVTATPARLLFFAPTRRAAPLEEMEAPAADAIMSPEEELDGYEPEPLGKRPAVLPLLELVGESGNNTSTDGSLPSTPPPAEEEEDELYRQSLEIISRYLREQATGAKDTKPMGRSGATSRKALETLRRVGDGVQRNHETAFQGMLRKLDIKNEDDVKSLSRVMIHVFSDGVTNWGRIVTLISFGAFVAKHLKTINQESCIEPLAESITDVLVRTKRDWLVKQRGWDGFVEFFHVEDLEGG
T1 sequence (O43521 146-166 partner limits assumed): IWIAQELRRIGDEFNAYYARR

B1: HSMCB (SEQ ID NO: 15, SEQ ID NO: 16): MCL-1/BIM heterodimer antibody, CDRs SEQ ID NO: 9-14, variable heavy chain SEQ ID NO: 15, variable light chain SEQ ID NO: 16 (antibody, V domains shown)
VH: MDWIWIMLHLLAAATGLQSQVHLQQSGSELRSPGSSVKLSCKDFDSEVFPIAYMSWVRQKPGHGFEWIGDILPSIGRTIYGEKFEDKATLDADTVSNTAYLELNSLTSEDSAIYYCARQDTYYAMDYWGQGTSVTVSS
VL: MHFQVQIFSFLLISASVIMSRGQIVLTQSPAIMSASPGEKVTITCSASSSVSYMHWVQQKPGTSPKLWIYSTSNLASGVPARFRGSGSGTSYSLTISRMEAEDAATYYCQQRSSYPYTFGGGTKLEIK
[1]
  selective binding to the MCL-1/BIM heterodimer versus monomer: preferentially react with the heterodimer and not to the monomer
[2]
  HSMCB IHC signal intensity: reduced HSMCB IHC signal intensity
[3]
  HSMCB IHC signal intensity: reduced HSMCB IHC signal intensity
[3]; Bim-siRNA transfected HCC70 cells vs WT, FIG. 4
  IHC activity: reduced activity

B2: HSMCB (SEQ ID NO: 7, SEQ ID NO: 8): MCL-1/BIM heterodimer antibody, CDRs SEQ ID NO: 1-6, variable heavy chain SEQ ID NO: 7, variable light chain SEQ ID NO: 8 (antibody, V domains shown)
VH: MNFGLSLIFLVLVLKGVQCEVQLVESGGDLVKPGGSLKLSCAVSGFTFSSYAMSWVRQTPAKRLEWVATISSGGFATYYPDTVKGRFTISRDNAKNTLYLQMSSLRSEDTAMYYCARHGGGSYGWFAYWGQGTLVTVSE
VL: MLSLAPLLSLLLLCVSDSRAETTVTQSPASLSVATGEKVTIRCITSTDIDDDMNWYQQKPGEPPKLLISEGNTLRPGVPSRFSSSGYGTDFVFTIENTLSEDFADYYCLQSDNMPYTFGGGTKLEIK
[1]
  selective binding to the MCL-1/BIM heterodimer versus monomer: preferentially react with the heterodimer and not to the monomer
[2]
  HSMCB IHC signal intensity: reduced HSMCB IHC signal intensity
[3]
  HSMCB IHC signal intensity: reduced HSMCB IHC signal intensity
